Patent US20020090382A1, “Antiviral compounds and methods” (University of Pittsburgh of the Commonwealth System of …, priority 2000, published 2002)
Substitutions are numbered along the chain they refer to. Names and notes keep the numbering of the source.

B1: L25D (protein)
chain: KYALIDASLKMADPNRFRGKDLPVDDQLTDPPGVRRVYHIQAGLPDPFQPPSLPITVYYAVLERACRSVLLNAPSEAPQIVRGASEDVRKQPYNLTIAWFRMGGNCAIPITVMEYTECSYNKSLGACPIRTQPRWNYYDSFSAVSEDNLGFLMHAPAFETAGTYLRLVKINDWTEITQFILEHRAKGSCKYALPLRIPPSACLSPQAYQQGVTVDSIGMLPRFIPENQRTVAVYSLKIAGWHGPKAPYTSTLLPPELSETPNATQPELAPEDPEDSALLEDPVGTVAPQIPPNWHIPSIQDAATPYHPPATPNNMGLIAGAVGGSLLAALVICGIVYWMHRRTRKAPKRIRLPHIREDDQPSSHQPLFY
B2: L25T (protein)
chain: B1 chain with D25T
B3: D26H (protein)
chain: B1 chain with D25L, D26H
B4: L25H (protein)
chain: B1 chain with D25H

Tested on: VD60 cells
Test: Transient complementation of gD-null virus KΔUS3-8Z, titers on VD60 cells
Assay type: cell-based
Settings: relative to wild-type gD (100%) and gD− (0%); KΔUS3-8Z virus
From the text: (§1) In a first transient complementation assay, several cell lines were employed. VD60 cells express wild-type gD endogenously which complements the deleted gD gene of KΔUS3-8Z for plaque formation, but only if the virus can initially infect using the gD product of the transfected gene. Thus, plaque formation on VD60 cells indicates complementation of gD's attachment/entry function by the transfected gene. CHO cells lack gD receptors and are resistant to HSV infection, but CHO cells transduced with HveA or HveC expression plasmids (CHO-HveA and CHO-HveC cells, respectively) are susceptible. KΔUS3-8Z misses the complete gD gene (US6) due to a large deletion extending from US3 to US8 and therefore offers no target for homologous recombination with transfected gD genes or the stable gD gene of VD60 cells. […] Since the progeny virus lacks gD, plaques will not form on these cells and virus entry was therefore determined by measurement of lacZ reporter gene expression.
(§2) To conduct the assay, Vero cells were transfected with LIPOFECTAMINE-PLUS (GIBCO) for 4 h at 37° C., the cell monolayers washed and incubated with DMEM/10% fetal bovine serum (FBS) for 16 h at 37° C., and the transfected cells infected with KΔUS3-8Z at an MOI of 3 for 2 h at 37° C. After removal of the medium and inactivation of residual extracellular virus by incubation of the monolayer with 0.1M glycine (pH 3.0) for 1 min at room temperature, fresh medium was added and the cells incubated at 37° C. for 48 hours. The medium was subsequently removed and temporarily stored on ice while the cells were being lysed by freeze-thawing and sonication. Cell debris was pelleted by low-speed centrifugation and the supernatant combined with the previously stored medium. Virus titers were determined on gD-complementing VD60 cells. Complementing activity was determined by infection of CHO-HveA, CHO-HveC, and control CHO-K cells. Infected cells were lysed in a buffer containing 1% NP-40, 1 mM MgCl2, 50 mM β-mercaptoethanol, and 4 mg/ml β-galatosidase substrate O-nitrophenyl β-D-galactopyranoside (ONPG, Sigma) in a total volume of 50 μl. The enzyme-substrate reaction was carried out at 37° C. and stopped by addition of an equal volume of 1M Na2CO3 after color development. β-galactosidase activity was measured by reading the absorbance at 420 nm. One hundred percent complementation was defined as the difference between the A420 values obtained for the wild-type (pSP72-gD) and negative control (pgD^−) gD plasmids. Relative complementation efficiencies were calculated as 100%×[A420(mutant)−A420(gD^−)]/[A420(wild type)−A420(gD^−)].

For B1, which “% Complementation VD60” value is on record?
Its value is 10%.

B2 was tested. Which “% Complementation VD60” value did it give?
The value was 14%.

How did the “% Complementation VD60” value turn out when B3 was run?
The value was 17%.

For B4, which “% Complementation VD60” value is on record?
The value was 14%.

Tested on: CHO-HveC cells
Test: Transient complementation of gD-null virus KΔUS3-8Z, entry into CHO-HveC cells (lacZ)
Assay type: cell-based, Chinese hamster
Settings: relative to wild-type gD (100%) and gD− (0%); KΔUS3-8Z virus, A420 β-galactosidase
From the text: as §1, §2

Which “% Complementation CHO-HveC” value does the source give for B1 here?
Its value is 14%.

How did the “% Complementation CHO-HveC” value turn out when B2 was run?
Its value is 3%.

For B3, which “% Complementation CHO-HveC” value is on record?
Its value is 11%.

For B4, which “% Complementation CHO-HveC” value is on record?
Its value is 12%.

Tested on: CHO-HveA cells
Test: Transient complementation of gD-null virus KΔUS3-8Z, entry into CHO-HveA cells (lacZ)
Assay type: cell-based, Chinese hamster
Settings: relative to wild-type gD (100%) and gD− (0%); KΔUS3-8Z virus, A420 β-galactosidase
From the text: as §1, §2

For B1, which “% Complementation CHO-HveA” value is on record?
The value was 0%.

With B2 as the molecule, how does the “% Complementation CHO-HveA” value read?
The value was 0%.

B3 was tested. Which “% Complementation CHO-HveA” value did it give?
The value was 10%.

For B4, which “% Complementation CHO-HveA” value is on record?
Its value is 0%.
